Reference: patent publication US8729232

Legend:
[1] = target: S. coelicolor sulfatase motif peptide … with Thr3 substituted by alanine
[2] = target: S. coelicolor sulfatase motif peptide … with Pro4 substituted by alanine
[3] = target: S. coelicolor sulfatase motif peptide … with Arg6 substituted by alanine
[4] = target: S. coelicolor sulfatase motif peptide … with Leu9 substituted by alanine

B1: Streptomyces coelicolor formylglycine generating enzyme (Strep FGE, SCO7548), recombinant (protein)
chain: AVAAPSPAAAAEPGPAARPRSTRGQVRLPGGEFAMGDAFGEGYPADGETPVHTVRLRPFHIDETAVTNARFAAFVKATGHVTDAERFGSSAVFHLVVAAPDADVLGSAAGAPWWINVRGAHWRRPEGARSDITGRPNHPVVHVSWNDATAYARWAGKRLPTEAEWEYAARGGLAGRRYAWGDELTPGGRWRCNIWQGRFPHVNTAEDGHLSTAPVKSYRPNGHGLWNTAGNVWEWCSDWFSPTYYAESPTVDPHGPGTGAARVLRGGSYLCHDSYCNRYRVAARSSNTPDSSSGNLGFRCANDADLTSGSAAE
With B1 the “conversion of cysteine to FGly relative to the wild-type sequence” value [1] was “substitution of Thr3, Pro4, Arg6, or Leu9 with alanine completely abrogated activity”, the “conversion of cysteine to FGly relative to the wild-type sequence” value [2] was “substitution of Thr3, Pro4, Arg6, or Leu9 with alanine completely abrogated activity” and the “conversion of cysteine to FGly relative to the wild-type sequence” value [3] was “substitution of Thr3, Pro4, Arg6, or Leu9 with alanine completely abrogated activity”. The “conversion of cysteine to FGly relative to the wild-type sequence” value [4] was “substitution of Thr3, Pro4, Arg6, or Leu9 with alanine completely abrogated activity”.
